Data from PMC5715260, “Increasing the length and hydrophobicity of the C‐terminal sequence of transthyretin strengthens its binding affinity to retinol binding protein” (FEBS Open Bio, 2017).

Target: Human retinol binding protein (RBP) (human, UniProt P02753 19-201)
Experiment: native gel or EMSA; purified TTR (0.5 uM) incubated with human RBP (0-4 uM) at 4 °C for 2 h; free and RBP-bound TTR separated by native PAGE (10%), western blot with anti-TTR and ECL; Kd by Scatchard analysis assuming a 1:2 TTR:RBP complex; low TTR/RBP molar ratio
Details: both partners purified

Kd: 1420 nM
B1: Crocodylus porosus transthyretin (TTR), recombinant (natural protein)
chain: not shown
notes: Transthyretin, Crocodylus porosus, recombinant wild type; The discussion says all TTRs were secreted as a tetramer; also called C. porosus TTR; crocTTR; source: Pichia pastoris, secreted into the culture medium, purified (preparative native PAGE)
